B1: SR-AB41: cycle 3 light chain-optimized antibody, lineage SR-AB23; CDRs SEQ ID NO: 160-165 (antibody, V domains shown)
VH: QVQLVESGGGVVQPGRSLRLSCAASGFTFRSYVMHWVRQAPGKGLEWVAVISHEGSLKYYADSVKGRFTISRDNSKNTLYLQMNSLRAEDTAVYYCARPRIAARRGGFGYWGQGTLVTVSS
VL: NFMLTQPHSVSESPGKTVTISCTRSSGNIDNNYVQWYQQRPGSSPTTVIYEDNQRPSGVPDRFSGSIDSSSNSASLTISGLKTEDEADYYCQSYDYDNQAVVFGGGTKLTVL
B2: SR-AB44: cycle 3 light chain-optimized antibody, lineage SR-AB23; CDRs SEQ ID NO: 178-183 (antibody, V domains shown)
VH: QVQLVESGGGVVQPGRSLRLSCAASGFTFRSYVMHWVRQAPGKGLEWVAVISHEGSLKYYADSVKGRFTISRDNSKNTLYLQMNSLRAEDTAVYYCARPRIAARRGGFGYWGQGTLVTVSS
VL: NFMLTQPHSVSESPGKTVTISCTRSHGNIDDNYVQWYQQRPGSSPTTVIYEDNVRPSGVPDRFSGSIDSSSNSASLTISGLKTEDEADYYCQSYDSDNQLVVFGGGTKLTVL
B3: SR-AB45: cycle 3 light chain-optimized antibody, lineage SR-AB23; CDRs SEQ ID NO: 184-189 (antibody, V domains shown)
VH: QVQLVESGGGVVQPGRSLRLSCAASGFTFRSYVMHWVRQAPGKGLEWVAVISHEGSLKYYADSVKGRFTISRDNSKNTLYLQMNSLRAEDTAVYYCARPRIAARRGGFGYWGQGTLVTVSS
VL: NFMLTQPHSVSESPGKTVTISCTRSSGAIDDNYVQWYQQRPGSSPTTVIYEDFQRPSGVPDRFSGSIDSSSNSASLTISGLKTEDEADYYCQSYDDDLQGVVFGGGTKLTVL
B4: SR-AB61 Fab (antibody, V domains shown)
VH: QVQLVESGGGVVQPGRSLRLSCAASGFTFRSYVMHWVRQAPGKGLEWVAVISHEGSGKYYADSVKGRFTISRDNSKNTLYLQMNSLRAEDTAVYYCALPRIAARRGGFGTWGQGTLVTVSS
VL: NFMLTQPHSVSESPGKTVTISCTRSSGNIDYNYVQWYQQRPGSSPTTVIYEDNVRPSGVPDRFSGSIDSSSNSASLTISGLKTEDEADYYCQGYDWDTQGVVFGGGTKLTVL
B5: SR-AB41 Fab (antibody, V domains shown)
VH: QVQLVESGGGVVQPGRSLRLSCAASGFTFRSYVMHWVRQAPGKGLEWVAVISHEGSLKYYADSVKGRFTISRDNSKNTLYLQMNSLRAEDTAVYYCARPRIAARRGGFGYWGQGTLVTVSS
VL: NFMLTQPHSVSESPGKTVTISCTRSSGNIDNNYVQWYQQRPGSSPTTVIYEDNQRPSGVPDRFSGSIDSSSNSASLTISGLKTEDEADYYCQSYDYDNQAVVFGGGTKLTVL
B6: SR-AB46 Fab (antibody, V domains shown)
VH: QVQLVESGGGVVQPGRSLRLSCAASGFTFRSYVMHWVRQAPGKGLEWVAVISHEGSGKYYADSVKGRFTISRDNSKNTLYLQMNSLRAEDTAVYYCARPRIAARRGGFGSWGQGTLVTVSS
VL: NFMLTQPHSVSESPGKTVTISCTRSSGNIDYNYVQWYQQRPGSSPTTVIYEDNVRPSGVPDRFSGSIDSSSNSASLTISGLKTEDEADYYCQSYDSDNQRVVFGGGTKLTVL
B7: SR-AB48 Fab (antibody, V domains shown)
VH: QVQLVESGGGVVQPGRSLRLSCAASGFTFRSYVMHWVRQAPGKGLEWVAVISHEGSGKYYADSVKGRFTISRDNSKNTLYLQMNSLRAEDTAVYYCARPRIAARRGGFGSWGQGTLVTVSS
VL: NFMLTQPHSVSESPGKTVTISCTRSSGNIDYNYVQWYQQRPGSSPTTVIYEDNVRPSGVPDRFSGSIDSSSNSASLTISGLKTEDEADYYCQSYDYDTQGVVFGGGTKLTVL
B8: SR-AB51 Fab (antibody, V domains shown)
VH: QVQLVESGGGVVQPGRSLRLSCAASGFTFRSYVMHWVRQAPGKGLEWVAVISHEGSGKYYADSVKGRFTISRDNSKNTLYLQMNSLRAEDTAVYYCARPRIAARRGGFGTWGQGTLVTVSS
VL: NFMLTQPHSVSESPGKTVTISCTRSSGNIDYNYVQWYQQRPGSSPTTVIYEDNVRPSGVPDRFSGSIDSSSNSASLTISGLKTEDEADYYCQSYDYDNQAVVFGGGTKLTVL
B9: SR-AB55 Fab (antibody, V domains shown)
VH: QVQLVESGGGVVQPGRSLRLSCAASGFTFRSYVMHWVRQAPGKGLEWVAVISHEGSGKYYADSVKGRFTISRDNSKNTLYLQMNSLRAEDTAVYYCALPRIAARRGGFGSWGQGTLVTVSS
VL: NFMLTQPHSVSESPGKTVTISCTRSSGNIDYNYVQWYQQRPGSSPTTVIYEDNVRPSGVPDRFSGSIDSSSNSASLTISGLKTEDEADYYCQSYDYDNQAVVFGGGTKLTVL
B10: SR-AB42 Fab (antibody, V domains shown)
VH: QVQLVESGGGVVQPGRSLRLSCAASGFTFRSYVMHWVRQAPGKGLEWVAVISHEGSLKYYADSVKGRFTISRDNSKNTLYLQMNSLRAEDTAVYYCARPRIAARRGGFGYWGQGTLVTVSS
VL: NFMLTQPHSVSESPGKTVTISCTRSSGNIDNNYVQWYQQRPGSSPTTVIYEDNQRPSGVPDRFSGSIDSSSNSASLTISGLKTEDEADYYCQSYDYDTQGVVFGGGTKLTVL
B11: SR-AB60 Fab (antibody, V domains shown)
VH: QVQLVESGGGVVQPGRSLRLSCAASGFTFRSYVMHWVRQAPGKGLEWVAVISHEGSGKYYADSVKGRFTISRDNSKNTLYLQMNSLRAEDTAVYYCALPRIAARRGGFGTWGQGTLVTVSS
VL: NFMLTQPHSVSESPGKTVTISCTRSSGNIDYNYVQWYQQRPGSSPTTVIYEDNVRPSGVPDRFSGSIDSSSNSASLTISGLKTEDEADYYCQSYDYDTQGVVFGGGTKLTVL
B12: SR-AB57 Fab (antibody, V domains shown)
VH: QVQLVESGGGVVQPGRSLRLSCAASGFTFRSYVMHWVRQAPGKGLEWVAVISHEGSGKYYADSVKGRFTISRDNSKNTLYLQMNSLRAEDTAVYYCALPRIAARRGGFGSWGQGTLVTVSS
VL: NFMLTQPHSVSESPGKTVTISCTRSSGNIDYNYVQWYQQRPGSSPTTVIYEDNVRPSGVPDRFSGSIDSSSNSASLTISGLKTEDEADYYCQGYDWDTQGVVFGGGTKLTVL

Assays:
[1] = target: huLTBP3 proTGFβ1 (Homo sapiens, UniProt P01137+Q9NS15); test: Octet (BLI) binding, IgG captured on AHC tips, antigen at 100 nM; conditions: Table 9, cycle 3, IgG1-agly; for Hu LTBP3-proTGFβ1 Kon: 1:1 fit; for Hu LTBP3-proTGFβ1 Koff: 5-minute dissociation
Experimental: (§1) Suitable methods for in vitro binding assays to determine the parameters of binding kinetics include Bio-layer Interferometry (BLI)-based assays such as Octet, and surface plasmon resonance (SPR)-based assays, such as Biacore systems (see, for example: biophysics.bioc.cam.ac.uk/wp-content/uploads/2011/02/Biacore_assay_handbook.pdf).
(§2) The affinity of SR-AB10, SR-AB2 and SR-AB13 was measured by Octet assay. The protocol used to measure the affinity of the antibodies to the complexes provided herein is summarized below.
(§3) • 96 well black polypropylene plates • AHC Octet tips (anti-human IgG Fc capture tips) (FortdBio) • 10× kinetics buffer (FortdBio) (diluted to 1× in PBS) • reiner Bio-One 96-Well Half Area Microplates (VWR cat #82050-044) Procedure:
(§4) Notes: The volume within each well during an Octet experiment is 100 uL.
(§5) A shake speed of 1000 rpm is used for all assay steps.
(§6) Pre-Wet Tips: • Biosensors must be pre-wet in 1× kinetics buffer (lx KB) for at least 10 minutes before starting an experiment. This can be done inside the Octet or on the bench.
(§7) Loading: • Tips are baselined in 1× KB for 1 minute before loading. • AHC tips are loaded with antibody at a concentration of 1 μg/mL (˜7 nM) for 3 minutes. A limit is set so that loading will stop when any one sensor reaches a response of 1 nanometer. • Tips are baselined in buffer for 1 minute after loading. The antibody should not dissociate from the tips during this time.
(§8) Antigen Association: • TGFβ1 in complex with various presentation molecules was associated to the immobilized antibodies at a single concentration of 100 nM in 1× KB.
(§9) Antibody Dissociation: • Dissociation in 1×KB was performed for 3 minutes.
(§10) Data Analysis using ForteBio Data analysis software 8.2: • Processing: align Y axis to last 5 seconds of baseline, perform inter-step correction with align to dissociation, and perform Savitzky-Golay filtering. • Analysis: 1:1 fitting model is utilized. Fitting is local and full. […] Results:
(§11) LTBP complex-specific antibodies from the first round of affinity maturation/optimization (SR-AB14, SR-AB16, SR-AB17, SR-AB18, SR-AB19) were selected for a second round of affinity maturation/optimization (i.e., CDR-H3 mutagenesis as described herein) and particular progeny antibodies (SR-AB20, SR-AB21, SR-AB22, SR-AB23, SR-AB24, SR-AB25, SR-AB26, SR-AB27, SR-AB28, and SR-AB29) were assessed for their ability to bind various proTGFβl constructs. Binding affinities of the optimized antibodies were measured by Octet against human LTBP1-proTGFβI, human LTBP3-proTGFb1, mouse LTBP1-proTGFβ1, mouse LTBP3-proTGFb1, and GARP-proTGFβl complexes, essentially as described in Example 6. In brief, test antibodies were immobilized to the surface of anti-human Fc capture biosensors (AHC) (ForteBio®) and binding was then tested against the various TGFβ1 complexes at a single concentration of 100 nM to assess binding affinities. The antigens were allowed to associate for 3 minutes followed by a 5-minute dissociation. Kinetics buffer (ForteBio®) was used throughout the experiment, and KD was determined using a 1:1 fitting model for each antibody antigen pair.
(§12) Binding affinities of the optimized antibodies were measured by Octet against human LTBP1-proTGFβ1, human LTBP3-proTGFβ1, mouse LTBP1-proTGFβ1, mouse LTBP3-proTGFβ1, and GARP-proTGFβ1 complexes, essentially as described in Example 6. In brief, test antibodies were immobilized to the surface of anti-human Fc capture biosensors (AHC) (ForteBio®) and binding was then tested against the various TGFβ1 complexes at a single concentration of 100 nM to assess binding affinities. The antigens were allowed to associate for 3 minutes followed by a 5-minute dissociation. Kinetics buffer (ForteBio®) was used throughout the experiment, and KD was determined using a 1:1 fitting model for each antibody antigen pair.

[2] = target: huLTBP1 proTGFβ1 (Homo sapiens, UniProt P01137+Q14766); test: as above; conditions: Table 9, cycle 3, IgG1-agly; for Hu LTBP1-proTGFβ1 Kon: 1:1 fit; for Hu LTBP1-proTGFβ1 Koff: 5-minute dissociation
Experimental: as §1, §2, §3, §4, §5, §6, §7, §8, §9, §10, §11
as §12, with “pair. […]” for “pair.”

[3] = test system: proTGFβ1 presented by endogenous LTBP1/3 in LN229 cells; test: Endogenous LTBP caga assay: LN229 cells transfected with human proTGFβ1 only, CAGA12 luciferase reporter cells; assay type: cell-based; conditions: Table 20: protocol of Example 10 with Fabs (RefAb also as hIgG4), assay format not stated
proTGFβ1 presented by endogenous LTBP1/3 in LN229 cells, sequence (P01137 30-390): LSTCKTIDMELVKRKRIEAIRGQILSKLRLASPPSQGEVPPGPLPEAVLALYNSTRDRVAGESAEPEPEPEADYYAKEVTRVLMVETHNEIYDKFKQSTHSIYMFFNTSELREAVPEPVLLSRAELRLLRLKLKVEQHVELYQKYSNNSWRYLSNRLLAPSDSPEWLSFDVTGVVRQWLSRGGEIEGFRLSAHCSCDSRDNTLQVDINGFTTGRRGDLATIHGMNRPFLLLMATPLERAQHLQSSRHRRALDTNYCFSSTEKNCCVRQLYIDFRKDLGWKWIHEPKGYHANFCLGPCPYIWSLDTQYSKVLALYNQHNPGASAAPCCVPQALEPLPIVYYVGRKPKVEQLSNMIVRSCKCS

huLTBP3 proTGFβ1, sequence (P01137 30-390): as above
huLTBP3 proTGFβ1, sequence (Q9NS15 44-1303): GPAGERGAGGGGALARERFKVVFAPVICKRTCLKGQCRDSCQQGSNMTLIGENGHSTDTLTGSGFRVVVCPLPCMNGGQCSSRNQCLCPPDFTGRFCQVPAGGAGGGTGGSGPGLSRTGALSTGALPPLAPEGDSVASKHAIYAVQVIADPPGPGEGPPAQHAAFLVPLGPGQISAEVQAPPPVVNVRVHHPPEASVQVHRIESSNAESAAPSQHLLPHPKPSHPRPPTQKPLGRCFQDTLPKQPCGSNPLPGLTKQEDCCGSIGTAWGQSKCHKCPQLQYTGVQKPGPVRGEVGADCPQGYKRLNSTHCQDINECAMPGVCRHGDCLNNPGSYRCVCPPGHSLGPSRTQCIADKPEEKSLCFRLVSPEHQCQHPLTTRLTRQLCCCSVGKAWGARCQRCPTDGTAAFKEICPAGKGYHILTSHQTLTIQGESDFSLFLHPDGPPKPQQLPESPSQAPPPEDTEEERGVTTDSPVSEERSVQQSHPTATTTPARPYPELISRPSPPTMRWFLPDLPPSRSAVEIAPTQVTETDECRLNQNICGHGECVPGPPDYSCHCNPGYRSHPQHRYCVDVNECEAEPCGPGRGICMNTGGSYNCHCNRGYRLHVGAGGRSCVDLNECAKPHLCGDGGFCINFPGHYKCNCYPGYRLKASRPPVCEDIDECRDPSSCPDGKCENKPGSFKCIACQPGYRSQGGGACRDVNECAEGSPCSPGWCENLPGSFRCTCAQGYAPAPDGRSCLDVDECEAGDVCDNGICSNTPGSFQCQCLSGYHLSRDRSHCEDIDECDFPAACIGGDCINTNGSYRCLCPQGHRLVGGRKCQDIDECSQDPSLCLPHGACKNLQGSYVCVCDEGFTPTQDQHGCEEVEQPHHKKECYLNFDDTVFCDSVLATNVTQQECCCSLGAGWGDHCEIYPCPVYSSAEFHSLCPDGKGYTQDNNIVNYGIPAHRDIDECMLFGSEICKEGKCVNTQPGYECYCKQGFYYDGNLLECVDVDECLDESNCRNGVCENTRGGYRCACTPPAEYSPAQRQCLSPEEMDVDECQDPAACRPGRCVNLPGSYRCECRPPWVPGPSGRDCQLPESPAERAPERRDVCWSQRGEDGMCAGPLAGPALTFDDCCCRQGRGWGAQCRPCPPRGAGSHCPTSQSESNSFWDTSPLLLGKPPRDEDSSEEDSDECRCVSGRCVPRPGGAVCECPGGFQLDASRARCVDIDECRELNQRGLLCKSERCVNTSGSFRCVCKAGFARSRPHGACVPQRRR
huLTBP1 proTGFβ1, sequence (P01137 30-390): as the sequence (P01137 30-390) above
huLTBP1 proTGFβ1, sequence (Q14766 347-1721 limits assumed): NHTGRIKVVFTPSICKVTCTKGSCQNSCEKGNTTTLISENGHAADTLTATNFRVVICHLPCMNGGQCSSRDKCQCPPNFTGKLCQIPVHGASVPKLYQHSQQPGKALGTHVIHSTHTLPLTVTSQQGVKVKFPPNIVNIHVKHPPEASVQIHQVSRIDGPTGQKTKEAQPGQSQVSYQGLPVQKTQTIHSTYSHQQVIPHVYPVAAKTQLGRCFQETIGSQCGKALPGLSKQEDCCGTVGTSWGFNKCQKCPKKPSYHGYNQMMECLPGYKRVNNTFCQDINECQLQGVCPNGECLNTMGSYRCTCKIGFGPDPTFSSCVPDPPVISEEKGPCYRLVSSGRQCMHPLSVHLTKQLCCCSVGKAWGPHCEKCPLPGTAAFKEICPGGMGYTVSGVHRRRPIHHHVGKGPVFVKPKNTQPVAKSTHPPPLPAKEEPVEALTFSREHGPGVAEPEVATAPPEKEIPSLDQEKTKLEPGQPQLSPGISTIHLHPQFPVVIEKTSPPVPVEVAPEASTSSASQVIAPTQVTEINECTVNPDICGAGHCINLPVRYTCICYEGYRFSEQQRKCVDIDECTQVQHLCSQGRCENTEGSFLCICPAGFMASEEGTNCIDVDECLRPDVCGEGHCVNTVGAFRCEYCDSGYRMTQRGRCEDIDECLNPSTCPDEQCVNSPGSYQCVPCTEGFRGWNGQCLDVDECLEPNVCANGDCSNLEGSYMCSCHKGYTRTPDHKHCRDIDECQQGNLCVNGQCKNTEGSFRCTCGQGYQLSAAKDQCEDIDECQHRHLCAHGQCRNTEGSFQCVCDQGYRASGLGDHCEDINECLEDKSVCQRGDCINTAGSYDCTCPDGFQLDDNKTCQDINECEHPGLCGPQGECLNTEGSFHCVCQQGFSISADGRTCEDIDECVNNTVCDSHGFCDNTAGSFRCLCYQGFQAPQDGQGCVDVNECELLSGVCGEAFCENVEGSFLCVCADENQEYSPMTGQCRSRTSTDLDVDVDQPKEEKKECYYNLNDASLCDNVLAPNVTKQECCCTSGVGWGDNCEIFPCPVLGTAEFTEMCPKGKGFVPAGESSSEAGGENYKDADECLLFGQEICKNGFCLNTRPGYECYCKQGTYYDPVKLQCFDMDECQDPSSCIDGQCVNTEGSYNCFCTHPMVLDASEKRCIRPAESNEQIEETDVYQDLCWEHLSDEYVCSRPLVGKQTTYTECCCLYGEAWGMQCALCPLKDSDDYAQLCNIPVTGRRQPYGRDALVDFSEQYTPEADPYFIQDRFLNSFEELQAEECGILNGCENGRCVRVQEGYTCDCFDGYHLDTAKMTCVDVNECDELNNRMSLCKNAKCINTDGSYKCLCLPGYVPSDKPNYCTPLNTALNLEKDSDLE

Row | Molecule | Hu LTBP3-proTGFβ1 Kon [1] [M⁻¹ s⁻¹] | Hu LTBP3-proTGFβ1 Koff [1] [s⁻¹] | Hu LTBP1-proTGFβ1 Kon [2] [M⁻¹ s⁻¹] | Hu LTBP1-proTGFβ1 Koff [2] [s⁻¹] | IC50 [3] [nM]
1 | B1 | 255000 | 6e-05 | 203000 | 6e-05 | –
2 | B2 | 410000 | 6e-05 | 280000 | 6e-05 | –
3 | B3 | 491000 | 6e-05 | 310000 | 6e-05 | –
4 | B4 | – | – | – | – | 0.47
5 | B5 | – | – | – | – | 0.486
6 | B6 | – | – | – | – | 0.495
7 | B7 | – | – | – | – | 0.523
8 | B8 | – | – | – | – | 0.535
9 | B9 | – | – | – | – | 0.536
10 | B10 | – | – | – | – | 0.667
11 | B11 | – | – | – | – | 0.742
12 | B12 | – | – | – | – | 0.775

Reference: patent US11214614B2, “LTBP complex-specific inhibitors of TGFβ and uses thereof” (Scholar Rock, Inc., priority 2019, dated 2022)
